Literature values in patent US20070184095A1, “OSMIUM COMPOUNDS FOR THE TREATMENT OF PSORIASIS” (priority 2006, published 2007).

Substance: Adalimumab
- increase in incidence of serious infections (human, in vivo): two-fold
- most notable complication (human, in vivo): reactivation of tuberculosis

Substance: efalizumab: humanized monoclonal antibody against the CD11a subunit of LFA-1
- patients who developed hemolytic anaemia (human, in vivo): four
- patients with immune-mediated thrombocytopenia (platelet counts at or below 52,000 cells/microliter) (human, in vivo): 0.3%
- subjects developing antiefalizumab antibodies (human, in vivo): approximately 5%
- overall incidence of hospitalization for infections (placebo 1.2): 1.6 per 100 patient-years

Substance: infliximab: chimeric (mouse-human) IgG1 monoclonal antibody, which binds to and inactivates TNF-α
- reported adverse events (small percentage of treated patients): pneumonia, tuberculosis, lymphoma, drug-induced lupus and hepatotoxicity
